Reference: patent publication US20180264123A1 (UNIVERSITY OF MIYAZAKI, published 2018)
Bridge positions count the residues as written; N and C are the ends. Xyl‑4‑branched CH3O‑PEG (40k)‑CH2 = xylose skeleton-containing 4-branched CH3O-PEG (40k)-CH2 (alkylamine-linked PEG, 40k)

B1: CH3O-PEG (20k)-(CH2)2-CH2-^αNH-(h.AM (1-52)) (peptide)
peptide: {CH3O‑PEG (20k)‑(CH2)2‑CH2‑}-YRQSMNNFQGLRSFGCRFGTCTVQKLAHQIYQFTDKDKDNVAPRSKISPQGY-NH2
modifications: disulfide 16-21
B2: GL-2-branched CH3O-PEG (40k)-CH2-^αNH-(h.AM (1-52)) (peptide)
peptide: {GL‑2‑branched CH3O‑PEG (40k)‑CH2‑}-YRQSMNNFQGLRSFGCRFGTCTVQKLAHQIYQFTDKDKDNVAPRSKISPQGY-NH2
modifications: disulfide 16-21
B3: GL-2-branched CH3O-PEG (80k)-CH2-^αNH-(h.AM (1-52)) (peptide)
peptide: {GL‑2‑branched CH3O‑PEG (80k)‑CH2‑}-YRQSMNNFQGLRSFGCRFGTCTVQKLAHQIYQFTDKDKDNVAPRSKISPQGY-NH2
modifications: disulfide 16-21
B4: GL-2-branched CH3O-PEG (40k)-CO-^αNH-(h.AM (16-52)) (peptide)
peptide: {GL‑2‑branched CH3O‑PEG (40k)‑CO‑}-CRFGTCTVQKLAHQIYQFTDKDKDNVAPRSKISPQGY-NH2
modifications: disulfide 1-6
B5: CH3O-PEG (5k)-(CH2)5-CO-^αNH-(h.AM (1-52)) (peptide)
peptide: {CH3O‑PEG (5k)‑(CH2)5‑CO‑}-YRQSMNNFQGLRSFGCRFGTCTVQKLAHQIYQFTDKDKDNVAPRSKISPQGY-NH2
modifications: disulfide 16-21
B6: Lys-2-branched CH3O-PEG (40k)-CH2-^αNH-(h.AM (1-52)) (peptide)
peptide: YRQSMNNFQGLRSFGCRFGTCTVQKLAHQIYQFTDKDKDNVAPRSKISPQGY
modifications: N-terminal α-amino group alkylamine-linked to lysine skeleton-containing 2-branched CH3O-PEG (40k)-CH2-; Cys16-Cys21 disulfide; C-terminal amide
B7: GL-2-branched CH3O-PEG (20k)-CO-^αNH-(h.AM (16-52)) (peptide)
peptide: {GL‑2‑branched CH3O‑PEG (20k)‑CO‑}-CRFGTCTVQKLAHQIYQFTDKDKDNVAPRSKISPQGY-NH2
modifications: disulfide 1-6
B8: GL-2-branched CH3O-PEG (20k)-CO-^αNH-(h.AM (1-52)) (peptide)
peptide: {GL‑2‑branched CH3O‑PEG (20k)‑CO‑}-YRQSMNNFQGLRSFGCRFGTCTVQKLAHQIYQFTDKDKDNVAPRSKISPQGY-NH2
modifications: disulfide 16-21
B9: GL-3-branched CH3O-PEG (50k)-CH2-^αNH-(h.AM (1-52)) (peptide)
peptide: {GL‑3‑branched CH3O‑PEG (50k)‑CH2‑}-YRQSMNNFQGLRSFGCRFGTCTVQKLAHQIYQFTDKDKDNVAPRSKISPQGY-NH2
modifications: disulfide 16-21
B10: GL-2-branched CH3O-PEG (20k)-CO-^αNH-(h.AM (11-52)) (peptide)
peptide: {GL‑2‑branched CH3O‑PEG (20k)‑CO‑}-LRSFGCRFGTCTVQKLAHQIYQFTDKDKDNVAPRSKISPQGY-NH2
modifications: disulfide 6-11
B11: GL-4-branched CH3O-PEG (40k)-CO-^αNH-(h.AM (1-52)) (peptide)
peptide: {GL‑4‑branched CH3O‑PEG (40k)‑CO‑}-YRQSMNNFQGLRSFGCRFGTCTVQKLAHQIYQFTDKDKDNVAPRSKISPQGY-NH2
modifications: disulfide 16-21
B12: GL-2-branched CH3O-PEG (40k)-CH2-^αNH-(h.AM (6-52)) (peptide)
peptide: {GL‑2‑branched CH3O‑PEG (40k)‑CH2‑}-NNFQGLRSFGCRFGTCTVQKLAHQIYQFTDKDKDNVAPRSKISPQGY-NH2
modifications: disulfide 11-16
B13: CH3O-PEG (30k)-(CH2)2-CH2-^αNH-(h.AM (1-52)) (peptide)
peptide: {CH3O‑PEG (30k)‑(CH2)2‑CH2‑}-YRQSMNNFQGLRSFGCRFGTCTVQKLAHQIYQFTDKDKDNVAPRSKISPQGY-NH2
modifications: disulfide 16-21
B14: CH3O-PEG (5k)-(CH2)2-CH2-^αNH-(h.AM (11-52)) (peptide)
peptide: {CH3O‑PEG (5k)‑(CH2)2‑CH2‑}-LRSFGCRFGTCTVQKLAHQIYQFTDKDKDNVAPRSKISPQGY-NH2
modifications: disulfide 6-11
B15: GL-4-branched CH3O-PEG (40k)-CO-^αNH-(h.AM (6-52)) (peptide)
peptide: {GL‑4‑branched CH3O‑PEG (40k)‑CO‑}-NNFQGLRSFGCRFGTCTVQKLAHQIYQFTDKDKDNVAPRSKISPQGY-NH2
modifications: disulfide 11-16
B16: CH3O-PEG (5k)-(CH2)2-CH2-^αNH-(h.AM (16-52)) (peptide)
peptide: {CH3O‑PEG (5k)‑(CH2)2‑CH2‑}-CRFGTCTVQKLAHQIYQFTDKDKDNVAPRSKISPQGY-NH2
modifications: disulfide 1-6
B17: GL-2-branched CH3O-PEG (40k)-CO-^αNH-(h.AM (1-52)) (peptide)
peptide: {GL‑2‑branched CH3O‑PEG (40k)‑CO‑}-YRQSMNNFQGLRSFGCRFGTCTVQKLAHQIYQFTDKDKDNVAPRSKISPQGY-NH2
modifications: disulfide 16-21
B18: CH3O-PEG (20k)-(CH2)5-CO-^αNH-(h.AM (1-52)) (peptide)
peptide: {CH3O‑PEG (20k)‑(CH2)5‑CO‑}-YRQSMNNFQGLRSFGCRFGTCTVQKLAHQIYQFTDKDKDNVAPRSKISPQGY-NH2
modifications: disulfide 16-21
B19: CH3O-PEG (20k)-(CH2)2-CH2-^αNH-(h.AM (16-52)) (peptide)
peptide: {CH3O‑PEG (20k)‑(CH2)2‑CH2‑}-CRFGTCTVQKLAHQIYQFTDKDKDNVAPRSKISPQGY-NH2
modifications: disulfide 1-6
B20: CH3O-PEG (40k)-(CH2)2-CH2-^αNH-(h.AM (1-52)) (peptide)
peptide: {CH3O‑PEG (40k)‑(CH2)2‑CH2‑}-YRQSMNNFQGLRSFGCRFGTCTVQKLAHQIYQFTDKDKDNVAPRSKISPQGY-NH2
modifications: disulfide 16-21
B21: CH3O-PEG (10k)-(CH2)2-CH2-^αNH-(h.AM (1-52)) (peptide)
peptide: {CH3O‑PEG (10k)‑(CH2)2‑CH2‑}-YRQSMNNFQGLRSFGCRFGTCTVQKLAHQIYQFTDKDKDNVAPRSKISPQGY-NH2
modifications: disulfide 16-21
B22: GL-2-branched CH3O-PEG (60k)-CH2-^αNH-(h.AM (1-52)) (peptide)
peptide: {GL‑2‑branched CH3O‑PEG (60k)‑CH2‑}-YRQSMNNFQGLRSFGCRFGTCTVQKLAHQIYQFTDKDKDNVAPRSKISPQGY-NH2
modifications: disulfide 16-21
B23: CH3O-PEG (20k)-CO-^αNH-(h.AM (1-52)) (peptide)
peptide: {CH3O‑PEG (20k)‑CO‑}-YRQSMNNFQGLRSFGCRFGTCTVQKLAHQIYQFTDKDKDNVAPRSKISPQGY-NH2
modifications: disulfide 16-21
B24: CH3O-PEG (5k)-(CH2)2-CH2-^αNH-(h.AM (6-52)) (peptide)
peptide: {CH3O‑PEG (5k)‑(CH2)2‑CH2‑}-NNFQGLRSFGCRFGTCTVQKLAHQIYQFTDKDKDNVAPRSKISPQGY-NH2
modifications: disulfide 11-16
B25: Xyl-4-branched CH3O-PEG (40k)-CH2-^αNH-(h.AM (1-52)) (peptide)
peptide: {Xyl‑4‑branched CH3O‑PEG (40k)‑CH2}-YRQSMNNFQGLRSFGCRFGTCTVQKLAHQIYQFTDKDKDNVAPRSKISPQGY-NH2
modifications: disulfide 16-21
B26: GL-4-branched CH3O-PEG (40k)-CH2-^αNH-(h.AM (1-52)) (peptide)
peptide: {GL‑4‑branched CH3O‑PEG (40k)‑CH2‑}-YRQSMNNFQGLRSFGCRFGTCTVQKLAHQIYQFTDKDKDNVAPRSKISPQGY-NH2
modifications: disulfide 16-21
B27: CH3O-PEG (20k)-(CH2)2-CH2-^αNH-(h.AM (11-52)) (peptide)
peptide: {CH3O‑PEG (20k)‑(CH2)2‑CH2‑}-LRSFGCRFGTCTVQKLAHQIYQFTDKDKDNVAPRSKISPQGY-NH2
modifications: disulfide 6-11
B28: GL-2-branched CH3O-PEG (20k)-CO-^αNH-(h.AM (6-52)) (peptide)
peptide: {GL‑2‑branched CH3O‑PEG (20k)‑CO‑}-NNFQGLRSFGCRFGTCTVQKLAHQIYQFTDKDKDNVAPRSKISPQGY-NH2
modifications: disulfide 11-16

These binders were tested against AM receptor (assay: cell-based or functional assay).

| Intracellular cAMP concentration-increasing effect (%) vs h.AM (1-52); 10^-8 mol/L, HEK293 cells | Binder |
| --- | --- |
| 100% | B1 |
| 96% | B2 |
| 94% | B3 |
| 61% | B4 |
| 81% | B5 |
| 102% | B6 |
| 96% | B7 |
| 99% | B8 |
| 80% | B9 |
| 104% | B10 |
| 85% | B11 |
| 77% | B12 |
| 100% | B13 |
| 80% | B14 |
| 83% | B15 |
| 39% | B16 |
| 87% | B17 |
| 67% | B18 |
| 97% | B19 |
| 101% | B20 |
| 101% | B21 |
| 99% | B22 |
| 100% | B23 |
| 90% | B24 |
| 81% | B25 |
| 95% | B26 |
| 97% | B27 |
| 99% | B28 |
